US10124035B2, “DISC-1 pathway activators in the control of neurogenesis” (Massachusetts Institute of Technology, priority 2008, dated 2018)
Blank lines part the entries; values can stand above or below the molecule they belong to.

Experiments:
[1] = system: neural progenitors in embryonic mouse brains; test: In utero electroporation of shRNA into E13 embryonic mouse brains; type: in vivo
Source text: (§1) • Mice. Swiss Webster pregnant female mice were purchased from Taconic (Hudson, N.Y.). • Cell Culture. AHPs were kindly provided by Dr. Gage (Lie, D. C. et al. Wnt signaling to regulates adult hippocampal neurogenesis. Nature 437, 1370-5 (2005)) and cultured under conditions described previously (Palmer, T. D., Takahashi, J. & Gage, F. H. The adult rat hippocampus contains primordial neural stem cells. Mol Cell Neurosci 8, 389-404 (1997)). Primary neural progenitors were isolated from E14 mouse embryos and cultured as described previously (Sanada, K. & Tsai, L. H. G protein betagamma subunits and AGS3 control spindle orientation and asymmetric cell fate of cerebral cortical progenitors. Cell 122, 119-31 (2005)). N2a and 293T cells were cultured in DMEM medium containing 10% FBS, L-glutamine, and penicillin/streptomycin. Wnt3a expressing L cells and untransfected L cells were obtained from ATCC (Manassas, Va.). Wnt3a conditional medium was produced according to the ATCC protocol. To induce AHP differentiation, FGF2 was removed from the culture medium and 1 μM retinoic acid/1% FBS was added to the medium for 4 days. • Reagents. Recombinant Wnt3a protein was obtained from Chemicon (Rosemont, Ill.). FGF2 was obtained from PeproTech (Rocky Hill, N.J.). Recombinant GST-GSK3β was obtained from Active Motif (Carlsbad, Calif.). Recombinant GST-β-catenin and GST-axin were obtained from Millipore (Billerica, Mass.). The GSK313 inhibitor, SB-216763, AR-A104418 and His-GSK3β, were obtained from Sigma-Aldrich (Sigma-Aldrich, St. Louis, Mo.). L803-MTS was obtained from Calbiochem (San Diego, Calif.). GST-AKT1 was obtained from Cell Signaling (Beverly, Mass.). GST-CASK-1 (CASK fragment from 316-415aa), GST-CASK-2 (CASK fragment from 777-974aa), and GST-p25 proteins were kindly provided by Dr. B. A. Samuels. Mouse DISC1 peptidel (40-78aa: GYMRSTAGSG IGFLSPAVGMPHPSSAG LTGQQSQHSQS; SEQ ID NO: 1) and Mouse DISC1 peptide 2 (195-238aa, […] GERGEAEGCLPSREAE; SEQ ID NO: 2) were synthesized by Chi Scientific (Maynard, Mass.). • Antibodies. The primary antibodies used in this study were the following: rabbit anti-DISC1 C-terminal antibody, mouse and rabbit anti-GFP antibodies (Invitrogen, Carlsbad, Calif.); affinity purified rabbit anti-DISC1 antibody (Novus, Littleton, Colo.) for immunohistochemistry; mouse anti-FLAG and mouse anti-Actin antibody; mouse anti-GSK3β antibody, mouse anti-β-catenin antibody, mouse anti-pY216 GSK3β antibody, and mouse anti-nestin antibody (BD Biosciences, San Diego, Calif.); rabbit anti-[…] β-catenin antibody, rabbit anti-pS9 GSK3β antibody, and mouse anti-cyclin to D1 antibody (Cell Signaling); mouse anti-Dv12 antibody, mouse anti-HA antibody, mouse anti-GST antibody, mouse anti-ubiquitin antibody, and rabbit anti-β-catenin antibody (Santa Cruz, Santa Cruz, Calif.); mouse Tuj-1 antibody (BABCO, Harrisburg, Pa.); mouse anti-BrdU antibody (DakoCytomation, Glostrup, Denmark); guinea pig anti-doublecortin antibody (Chemicon, Rosemont, Ill.); chicken anti-GFP antibody (Ayes Labs, Tigard, Oreg.); rabbit anti-pS10 Histone H3 antibody (Upstate, Lake Placid, N.Y.). • Constructs. The sequences for shRNAs targeting DISC1 are as follows: control shRNA: 5′-CGGCTGAAACAAGAGTTGG-3′ (SEQ ID NO:3); DISC1 shRNA-1: 5′-GGCAAACACTGTGA AGT GC-3′ (SEQ ID NO:4); DISC1 shRNA-2: 5′-[…]-3′ (SEQ ID NO:5)(Kamiya A. et al. A schizophrenia-associated mutation of DISC1 perturbs cerebral cortex development. Nat. Cell Biol 7, 1167-78 (2005)). DISC1 shRNA-1 recognizes both rat and mouse DISC1. […]

AHPs = test: Immunoblot of β-catenin and cyclin D1 in transduced AHPs; type: cell-based
Source text: • Mice. Swiss Webster pregnant female mice were purchased from Taconic (Hudson, N.Y.). • Cell Culture. AHPs were kindly provided by Dr. Gage (Lie, D. C. et al. Wnt signaling to regulates adult hippocampal neurogenesis. Nature 437, 1370-5 (2005)) and cultured under conditions described previously (Palmer, T. D., Takahashi, J. & Gage, F. H. The adult rat hippocampus contains primordial neural stem cells. Mol Cell Neurosci 8, 389-404 (1997)). Primary neural progenitors were isolated from E14 mouse embryos and cultured as described previously (Sanada, K. & Tsai, L. H. G protein betagamma subunits and AGS3 control spindle orientation and asymmetric cell fate of cerebral cortical progenitors. Cell 122, 119-31 (2005)). N2a and 293T cells were cultured in DMEM medium containing 10% FBS, L-glutamine, and penicillin/streptomycin. Wnt3a expressing L cells and untransfected L cells were obtained from ATCC (Manassas, Va.). Wnt3a conditional medium was produced according to the ATCC protocol. To induce AHP differentiation, FGF2 was removed from the culture medium and 1 μM retinoic acid/1% FBS was added to the medium for 4 days. • Reagents. Recombinant Wnt3a protein was obtained from Chemicon (Rosemont, Ill.). FGF2 was obtained from PeproTech (Rocky Hill, N.J.). Recombinant GST-GSK3β was obtained from Active Motif (Carlsbad, Calif.). Recombinant GST-β-catenin and GST-axin were obtained from Millipore (Billerica, Mass.). The GSK313 inhibitor, SB-216763, AR-A104418 and His-GSK3β, were obtained from Sigma-Aldrich (Sigma-Aldrich, St. Louis, Mo.). L803-MTS was obtained from Calbiochem (San Diego, Calif.). GST-AKT1 was obtained from Cell Signaling (Beverly, Mass.). GST-CASK-1 (CASK fragment from 316-415aa), GST-CASK-2 (CASK fragment from 777-974aa), and GST-p25 proteins were kindly provided by Dr. B. A. Samuels. Mouse DISC1 peptidel (40-78aa: GYMRSTAGSG IGFLSPAVGMPHPSSAG LTGQQSQHSQS; SEQ ID NO: 1) and Mouse DISC1 peptide 2 (195-238aa, […] GERGEAEGCLPSREAE; SEQ ID NO: 2) were synthesized by Chi Scientific (Maynard, Mass.). • Antibodies. […]

GSK3β [2] = biological target: T1, GSK3β (Homo sapiens, UniProt P49841); test: GSK3β SPR (surface plasmon resonance) binding assay; settings: for percent theoretical maximal response (binding to GSK3β): concentration of 25 μM
T1 construct: GST; purchased Active Motif (Carlsbad, Calif.)
T1 sequence (P49841 whole entry): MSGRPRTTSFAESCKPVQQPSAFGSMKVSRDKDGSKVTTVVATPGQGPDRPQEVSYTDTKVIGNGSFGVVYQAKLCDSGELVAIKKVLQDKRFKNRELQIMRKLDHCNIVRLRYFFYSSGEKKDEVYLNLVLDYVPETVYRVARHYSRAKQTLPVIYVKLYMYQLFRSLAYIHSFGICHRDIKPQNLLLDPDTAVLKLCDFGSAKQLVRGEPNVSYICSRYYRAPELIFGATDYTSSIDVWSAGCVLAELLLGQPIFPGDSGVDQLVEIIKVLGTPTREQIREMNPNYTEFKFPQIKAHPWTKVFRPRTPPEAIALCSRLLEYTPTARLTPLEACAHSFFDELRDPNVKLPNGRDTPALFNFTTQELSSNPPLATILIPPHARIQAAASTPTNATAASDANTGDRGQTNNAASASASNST
Experimental: FIG. 16B is a schematic of overlapping 15-mer peptides that covered peptide 2 and a graph showing the ability of the peptides to bind to GSK3β.
Surface plasmon resonance (SPR) was used to determine whether peptide 2 directly binds to GSK3β. GSK3β SPR binding assays were carried out with peptide 1, peptide 2, the GSK3β inhibitor L803-MTS, and as a negative control, a peptide from the N-type calcium channel, CACNA1B (FIG. 6A). […] To identify the peptide 2 sequences that mediate this interaction with GSK3β, we designed overlapping 15-mer peptides that covered peptide 2 and tested their binding to GSK3β SPR (FIG. 16B).

GSK3β [3] = biological target: T1, GSK3β; test: GSK3β in vitro kinase assay (β-catenin/axin phosphorylation, Y216 autophosphorylation); type: biochemical; settings: for inhibition of GSK3β / inhibition of GSK3β kinase activity by peptides: in vitro kinase assay; for inhibition of GSK3β kinase activity by peptides: dose-response or comparison
Source text: as §1

[4] = electroporated at E13, analyzed 3 days later

Molecule: DISC1 shRNA-2: shRNA targeting human, rat and mouse DISC1, SEQ ID NO:5, in pLentiLox 3.7 vector (GCAGGAGGTCAGCAAGGCCTTG)
BrdU labeling ([1]; BrdU 2 hours prior to collection): 15.9±2.2%
cell cycle exit index ([1]; electroporated E13, BrdU at E15, collected E16): 66.5±13.2%
GFP+Dcx+ cells ([1]; electroporated E13, sacrificed E16, SVZ): 42.3±5.8%
GFP positive cells in the VZ/SVZ [1, 4]: 10%
GFP positive cells in the cortical plate [1, 4]: 62%
mitotic index ([1]; pH3, electroporated E13, sacrificed E15): 3.5±0.8%
reduction of Cyclin D1 levels (AHPs): 70%
β-catenin levels (AHPs): 19 % to control

Molecule: peptide 1: Mouse DISC1 peptide, 40-78aa, SEQ ID NO: 1, synthesized by Chi Scientific (GYMRSTAGSGIGFLSPAVGMPHPSSAGLTGQQSQHSQS; listed as Mus musculus)
percent theoretical maximal response (binding to GSK3β) (GSK3β [2]): 62%
inhibition of GSK3β (GSK3β [3]; at 80 μM): did not inhibit GSK3β
inhibition of GSK3β kinase activity by peptides (GSK3β [3]; no single concentration): did not inhibit GSK3β activity

Molecule: peptide 2: Mouse DISC1 peptide, 195-238aa, PADIASLPGFQDTFTSSFSFIQLSLGAAGERGEAEGCLPSREAE, SEQ ID NO: 2 (listed as Mus musculus)
percent theoretical maximal response (binding to GSK3β) (GSK3β [2]): 197%
inhibition of GSK3β (GSK3β [3]; at 1 μM): did not inhibit GSK3β
inhibition of GSK3β (GSK3β [3]; at 10 μM): inhibited GSK3β
inhibition of GSK3β kinase activity by peptides (GSK3β [3]; no single concentration): inhibited GSK3β more potently than the commercial GSK3β peptide inhibitor, L803-MTS
inhibition of GSK3β kinase activity by peptides (GSK3β [3]; no single concentration, listed as DISC1 peptide 1(195-238aa)): dose-dependent
inhibition of GSK3β kinase activity by peptides (GSK3β [3]; no single concentration, listed as Peptide 195-238): inhibited GSK3β in a dose-dependent manner more potently than the commercial peptide inhibitor, L803-MTS

Molecule: peptide 3: 15-mer peptide that encompasses mDISC1 amino acids 211 to 225 (SFSFIQLSLGAAGER; listed as Mus musculus)
percent maximal binding to GSK3β (GSK3β [2]; 15-mer peptide): 238%
binding to GSK3β (GSK3β [2]; result in words): bound to GSK3β
inhibition of GSK3β kinase activity by peptides (GSK3β [3]; no single concentration): failed to inhibit GSK3β kinase activity

inhibition of GSK3β activity by DISC1 fragments (GSK3β [3]; no single concentration, dose dependence, rank): able to inhibit GSK3 activity
B1: DISC1 fragment 221-355: GST-tagged mouse DISC1 protein fragment, amino acids 221-355 (protein, UniProt Q811T9 221-355, looked up, fragment)
chain: AAGERGEAEGCLPSREAEPLHQRPQEMAAEASSSDRPHGDPRHLWTFSLHAAPGLADLAQVTRSSSRQSECGTVSSSSSDTGFSSQDASSAGGRGDQGGGWADAHGWHTLLREWEPMLQDYLLSNRRQLEVTSLI
modifications: GST tag
inhibition of GSK3β autophosphorylation (Y216) (GSK3β [3]; GST-DISC1 fragments at 2 μM): started to inhibit GSK3β autophosphorylation
